Values quoted from earlier work as cited in PMC11969061.

Target: BTN3A IgV (Homo sapiens) (UniProt O00481)
UniProt O00481, sequence (O00481 30-139): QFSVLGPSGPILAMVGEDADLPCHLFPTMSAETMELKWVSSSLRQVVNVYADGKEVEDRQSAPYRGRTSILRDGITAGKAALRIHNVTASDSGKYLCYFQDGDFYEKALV

In the case of BTN2A1 IgV (from UniProt Q7KYR7), the Kd is given as 600 µM.
